For test [1], the target named is mAbs 2A4, 8G9 and 7D8, told of as a group. The test can be described thus: competition ELISA, value told for the three mAbs together. (An ELISA detects its analyte on a solid surface through an enzyme-linked reagent.)
The target is the same in test [2]. The test can be described thus: competition ELISA, told for the three mAbs together.

B1: murine AA amyloid (AA fibrils, amyloid enhancing factor extract or tissue deposits) (protein, mouse, UniProt P05367 20-94, looked up)
chain: GFFSFIGEAFQGAGDMWRAYTDMKEAGWKDGDKYFHARGNYDAAQRGPGGVWAAEKISDARESFQEFFGRGHEDT
One may read the IC50 as the concentration that inhibits the measured activity by half. A low value points to inhibition by little substance. In turn, B1 gave an IC50 in test [1] of 20 µg/mL.

B2: human AA amyloid (renal AA amyloid extract or tissue deposits) (protein, UniProt P0DJI8 19-94, looked up)
chain: RSFFSFLGEAFDGARDMWRAYSDMREANYIGSDKYFHARGNYDAAKRGPGGAWAAEVITDARENIQRFFGHGAEDS
As to B2, in test [2], the fold greater IC50 than murine AEF in solution was in the range of 6 to 44 fold.

For the origin of these results see patent US20110038790A1.
